Data set [1] concerns RNase M5 WT (Bacillus subtilis).
Data set [2] concerns RNase M5 WT;ribosomal protein L18 (Bacillus subtilis;Bacillus subtilis).

This note sets out measurements from paper PMC1182330.

Substance 5S rRNA precursor (pre-5S) had a K half in data set [1] of 2000 nM. The same substance gave a binding signal (fold higher affinity than without L18) in data set [2] of 10.
